Measured values published in PMC2749469 (Biochemistry, 2009).

Target: the molecule itself
Assay: SEC

B1: E. coli HemG (recombinant, six histidine-tagged) (enzyme, UniProt P0ACB4 1-181, looked up)
chain: MKTLILFSTRDGQTREIASYLASELKELGIQADVANVHRIEEPQWENYDRVVIGASIRYGHYHSAFQEFVKKHATRLNSMPSAFYSVNLVARKPEKRTPQTNSYARKFLMNSQWRPDRCAVIAGALRYPRYRWYDRFMIKLIMKMSGGETDTRKEVVYTDWEQVANFAREIAHLTDKPTLK
In the case of B1, the “stoichiometry N” value is reported as 4.
